Here are results for 36 sequences from the supplement of paper PMC12764529.

The nature of data set [1]: folding stability dG unfold from trypsin proteolysis; higher = more stable. Put shortly:
(§1)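 Designed mini-proteins with no cysteine and under 80 residues were kept only if AlphaFold2 dimer inter-PAE was above 15. In a PA-tagged cDNA display construct, they were digested with trypsin and chymotrypsin and then sequenced. K50 was inferred by Bayesian fitting of counts, and unfolding free energy was derived per protease or combined against a sequence-predicted unfolded-state K50 and a shared folded-state K50.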

The nature of data set [2]: folding stability dG unfold from chymotrypsin proteolysis; higher = more stable. In short, it runs like this:
as §1

A short description of data set [3]: folding stability dG unfold (combined trypsin and chymotrypsin); higher = more stable. Put shortly:
as §1

± gives the half width of the 95% confidence interval.

On to “SAGGSAGGSAGGKTYTAEELRKKLPPGAVIRLKNGKKYEIKEGDKIKKGDKIEIVPKKDLSAGGSAGGSAGG [r7_507_TrROS_Hall]”, for which the entries for the “folding stability dG unfold” value in data set [1], in data set [2] and in data set [3] were -0.344 ± 0.32 kcal/mol, 0.369 ± 0.14 kcal/mol and 0.18 ± 0.13 kcal/mol, respectively.
“SAGGSAGGSAGGKVGPGTTVTIVEVEVVGSKINPLGLVTTDFVVKKVEVVEVEKGADLKSAGGSAGGSAGGS [r10_826_JUSTAS]”: the “folding stability dG unfold” value in data set [1] was 0.487 ± 0.041 kcal/mol; in data set [2], -0.775 ± 0.41 kcal/mol; in data set [3] it was 0.0651 ± 0.12 kcal/mol.
Regarding “SAGGSAGGSAGGKVHPDQPVKLRLTFTVSGVYYDENKPRVETKPVTVEFTALAPDEDALSAGGSAGGSAGGS [r10_745_TrMRF]”, the “folding stability dG unfold” value in data set [1] was determined as 0.0543 ± 0.12 kcal/mol; in data set [2], 0.208 ± 0.17 kcal/mol; in data set [3], 0.185 ± 0.07 kcal/mol.
The corresponding values for “SAGGSAGGSAGGKVIDSEEFRNNFPSGGVLVDNNGNLYLVGNNYPIDPNQPFLYVSPDEISAGGSAGGSAGG [r7_507_TrMRF]” are 0.959 ± 0.086 kcal/mol, 1.56 ± 0.17 kcal/mol and 1.23 ± 0.22 kcal/mol.
In the case of “SAGGSAGGSAGGKVIVKEITINEDGTVTIKGEIFDENGELIAEAEFKFRLGDGGPIEFESAGGSAGGSAGGS [r10_484_TrMRF]”, the “folding stability dG unfold” value turned out to be 2.18 ± 0.18 kcal/mol in data set [1], 2.462 ± 0.021 kcal/mol in data set [2] and 2.3 ± 0.16 kcal/mol in data set [3].
With “SAGGSAGGSAGGKVTKVILYPLPGGKVRLIIYGDDGKPYFFETSFEDLKNFPNIPFIILPSAGGSAGGSAGG [r7_238_TrMRF]”, the “folding stability dG unfold” value in data set [1] was 2.19 ± 0.069 kcal/mol; in data set [2], 2.27 ± 0.049 kcal/mol; in data set [3], 2.11 ± 0.073 kcal/mol.
Consider “SAGGSAGGSAGGKYKIKEIKVEEVDGKKYVKLVIYDKNGKPVKTIVMSLEELKKLPPELLSAGGSAGGSAGG [r7_263_TrROS_Hall]”, for which the “folding stability dG unfold” value in data set [1] turned out to be 1.55 ± 0.041 kcal/mol; in data set [2] it was 2.37 ± 0.12 kcal/mol; in data set [3], 1.89 ± 0.22 kcal/mol.
With “SAGGSAGGSAGGLGLDLPVFPVKTTTSSSTVPLPNGQTVTVTTTTTTFPGSSSTTTTTTGSAGGSAGGSAGG [r17_59_JUSTAS]”, the entries for the “folding stability dG unfold” value in data set [1], in data set [2] and in data set [3] were 1.02 ± 0.031 kcal/mol, 1.46 ± 0.037 kcal/mol and 1.31 ± 0.037 kcal/mol, respectively.
For “SAGGSAGGSAGGLGPDEKPKVKYLALIYDPETGEVTVVPADKLDKVLKETDASVSLFPVSAGGSAGGSAGGS [r10_1121_TrMRF]”, in that order: 0.351 ± 0.1 kcal/mol, 0.401 ± 0.1 kcal/mol and 0.565 ± 0.2 kcal/mol.
“SAGGSAGGSAGGLKPGEKLVFKTETKTLKLKAKVFNKDTGEEFEVEVELTVTRIEVYPLSAGGSAGGSAGGS [r10_1116_TrROS_Hall]”: the “folding stability dG unfold” value in data set [1] worked out at 3.04 ± 0.31 kcal/mol; in data set [2], 4.96 ± 0.22 kcal/mol; in data set [3], 4.79 ± 0.33 kcal/mol.
Take “SAGGSAGGSAGGLPPGDKLKPVASWPIWAMFPVTYKGPDGELPFNIMIPIRIEIWKPDDSAGGSAGGSAGGS [r10_758_TrROS]”: the “folding stability dG unfold” value in data set [1] was 2.23 ± 0.087 kcal/mol; in data set [2], 2.674 ± 0.022 kcal/mol; in data set [3] it was 2.49 ± 0.1 kcal/mol.
For “SAGGSAGGSAGGMATTTTKIEIYPGTGKVKTTTTVTDPSTGTTTTTTTTEETSLEELTSSAGGSAGGSAGGS [r10_173_JUSTAS]”, in that order: -0.0031 ± 0.05 kcal/mol, 0.657 ± 0.082 kcal/mol and 0.345 ± 0.13 kcal/mol.
Regarding “SAGGSAGGSAGGMEEIRELLEKAKKEGLESITVTVNDPAEATEVRAYAEEKGIPVTINASAGGSAGGSAGGS [r10_307_JUSTAS]”, the “folding stability dG unfold” value in data set [1] is 0.415 ± 0.048 kcal/mol; in data set [2], -1.01 ± 0.56 kcal/mol; in data set [3], -0.0348 ± 0.16 kcal/mol.
For “SAGGSAGGSAGGMEFELEDGGYVKVELELSEDGELVARVEFFNENGEPVAEIEVPLEEILSAGGSAGGSAGG [r7_660_TrMRF]”, in that order: 1.63 ± 0.12 kcal/mol, 1.76 ± 0.062 kcal/mol and 1.76 ± 0.13 kcal/mol.
The corresponding values for “SAGGSAGGSAGGMEIEFEKAKFEIEEIDPEKGKIKVKFPGLEKEFEIEFDKKGKIVKISGSAGGSAGGSAGG [r7_553_TrMRF]” are 0.228 ± 0.057 kcal/mol, 0.959 ± 0.036 kcal/mol and 0.612 ± 0.12 kcal/mol.
On to “SAGGSAGGSAGGMEVEYNPEELSPESEVTITVTLPGGEKVELKAKIYTNPDGSLSYELESAGGSAGGSAGGS [r10_390_JUSTAS]”, for which the “folding stability dG unfold” value stood at 0.697 ± 0.047 kcal/mol in data set [1], 1.58 ± 0.035 kcal/mol in data set [2] and 1.3 ± 0.053 kcal/mol in data set [3].
Take “SAGGSAGGSAGGMEVKVEEFVENGKPVVREFYPDSIKVTTYTFDENGNVTEKKEYVIPKESAGGSAGGSAGG [r7_722_JUSTAS]”: the entries for the “folding stability dG unfold” value in data set [1], in data set [2] and in data set [3] were 0.413 ± 0.061 kcal/mol, 0.92 ± 0.15 kcal/mol and 0.691 ± 0.17 kcal/mol, respectively.
In the case of “SAGGSAGGSAGGMEVVIPLDKNERYLAYVLGEPKFVEFDPEKGYLVIPNTPPENVIVVKYSAGGSAGGSAGG [r7_200_TrMRF]”, the “folding stability dG unfold” value in data set [1] amounted to 0.248 ± 0.05 kcal/mol; in data set [2] it was 0.418 ± 0.15 kcal/mol; in data set [3], 0.325 ± 0.1 kcal/mol.
For “SAGGSAGGSAGGMFKTYDSLEDVKKNETGDGAKGKVFVVAPIPELENAVLVLVEIRPPDSAGGSAGGSAGGS [r10_126_TrMRF]”, in that order: -0.219 ± 0.069 kcal/mol, 0.504 ± 0.11 kcal/mol and 0.231 ± 0.088 kcal/mol.
As to “SAGGSAGGSAGGMFLIKLPNGKVLLFESEEEAKAALEELTGKPVDLENLEIVPLPEEELSAGGSAGGSAGGS [r10_62_TrROS_Hall]”, the “folding stability dG unfold” value came to 3.65 ± 0.14 kcal/mol in data set [1], 3.14 ± 0.045 kcal/mol in data set [2] and 3.3 ± 0.11 kcal/mol in data set [3].
“SAGGSAGGSAGGMFYIKNEKGEVFPFTSLEEFLKQLEEKTGKPVKLNNIVIYPAAPHSLSAGGSAGGSAGGS [r10_62_TrMRF]”: the “folding stability dG unfold” value in data set [1] is 1.04 ± 0.042 kcal/mol; in data set [2], 1.81 ± 0.15 kcal/mol; in data set [3], 1.7 ± 0.27 kcal/mol.
Consider “SAGGSAGGSAGGMGINVTVSEEVSVLPDPSVVRVTTTTKTPDGTTTVTEEVIPGPEELESAGGSAGGSAGGS [r10_1221_JUSTAS]”, for which the “folding stability dG unfold” value was -0.15 ± 0.045 kcal/mol in data set [1], 1.47 ± 0.099 kcal/mol in data set [2] and 1.2 ± 0.075 kcal/mol in data set [3].
“SAGGSAGGSAGGMIIEKKTVEKLPDGTVKVTVSIITVNDDGKTETIKTETKIIPLSELLGSAGGSAGGSAGG [r7_521_JUSTAS]”: the “folding stability dG unfold” value turned out to be 2.31 ± 0.11 kcal/mol in data set [1], 2.25 ± 0.1 kcal/mol in data set [2] and 2.18 ± 0.11 kcal/mol in data set [3].
As for “SAGGSAGGSAGGMILRDPNRDIWTADFPDSSGNLVSSREFPPGEIEEVLAEGNVSAEVLPSAGGSAGGSAGG [r11_159_JUSTAS]”, the “folding stability dG unfold” value in data set [1] turned out to be 0.362 ± 0.015 kcal/mol; in data set [2] it was 0.297 ± 0.059 kcal/mol; in data set [3], 0.315 ± 0.043 kcal/mol.
The corresponding values for “SAGGSAGGSAGGMIVLKDPDPARLEARAEELRAELEAAGRELPPDVEIEVLEAEPDPALLSAGGSAGGSAGG [r7_965_JUSTAS]” are -0.194 ± 0.21 kcal/mol, -0.568 ± 0.37 kcal/mol and -0.279 ± 0.29 kcal/mol.
As for “SAGGSAGGSAGGMKIKITVEVFDPNTGKVLKTEEFTSLEEAEKKVKEEDPNKVKVTVKEESAGGSAGGSAGG [r7_201_JUSTAS]”, the “folding stability dG unfold” value in data set [1] is 0.805 ± 0.056 kcal/mol; in data set [2] it was 1.71 ± 0.032 kcal/mol; in data set [3], 1.33 ± 0.077 kcal/mol.
Turning to “SAGGSAGGSAGGMKILSVEEDAPPDYVTVTELTVDSEGNKKIITTTIPIEPPPEVSPSLISAGGSAGGSAGG [r7_873_JUSTAS]”, the “folding stability dG unfold” value came out at 1.15 ± 0.039 kcal/mol in data set [1], 1.45 ± 0.1 kcal/mol in data set [2] and 1.24 ± 0.17 kcal/mol in data set [3].
For “SAGGSAGGSAGGMKIVFLGKKALIENENGEVTEIPVGSLEEFEKLAEAFPDYEAVPAVPSAGGSAGGSAGGS [r10_1211_TrMRF]”, in that order: 0.888 ± 0.025 kcal/mol, 1.5 ± 0.029 kcal/mol and 1.31 ± 0.051 kcal/mol.
The corresponding values for “SAGGSAGGSAGGMKKKIPNKTLTIEIEVKLENGLYLKMKITVNKNGEIKIEIEVIPKEDLSAGGSAGGSAGG [r7_214_TrROS_Hall]” are 2.57 ± 0.12 kcal/mol, 3.33 ± 0.073 kcal/mol and 3.08 ± 0.14 kcal/mol.
The corresponding values for “SAGGSAGGSAGGMKKYKITVYDEKTGEKHTIEIEMSEEELEELAKKLAEKHNVKVRIEKVSAGGSAGGSAGG [r7_562_TrROS_Hall]” are 2.73 ± 0.095 kcal/mol, 4.27 ± 0.052 kcal/mol and 3.91 ± 0.062 kcal/mol.
Take “SAGGSAGGSAGGMKTIEITNADGSKATAELLPDGWVKIYFEETGEEKTLPAKDLTITPPSAGGSAGGSAGGS [r10_289_TrROS_Hall]”: the “folding stability dG unfold” value is 0.423 ± 0.038 kcal/mol in data set [1], 0.5 ± 0.013 kcal/mol in data set [2] and 0.466 ± 0.05 kcal/mol in data set [3].
For “SAGGSAGGSAGGMKTIVLPNVTPEEAEALAAELEKKYPGRTVNVTYVPENPTTVVITVGSAGGSAGGSAGGS [r10_852_JUSTAS]”, in that order: 2.21 ± 0.085 kcal/mol, 2.54 ± 0.12 kcal/mol and 2.41 ± 0.087 kcal/mol.
The corresponding values for “SAGGSAGGSAGGMKTIVVPKDELEKLKEELEKKGKKVETSEDGTWTVDGKPVKVVVEPGSAGGSAGGSAGGS [r10_930_JUSTAS]” are 0.352 ± 0.062 kcal/mol, 0.731 ± 0.032 kcal/mol and 0.594 ± 0.1 kcal/mol.
As to “SAGGSAGGSAGGMKVERVEVVELPNGQRVLTRTLEVVPPDGSSRVLETEVRFYPPDEALLSAGGSAGGSAGG [r7_917_JUSTAS]”, the “folding stability dG unfold” value is -0.666 ± 0.38 kcal/mol in data set [1], 0.291 ± 0.06 kcal/mol in data set [2] and 0.0413 ± 0.065 kcal/mol in data set [3].
For “SAGGSAGGSAGGMKYTIKVTTTYPDGTVTEYTFPSSVSKEEIIKELPSDVVDITFTETASSAGGSAGGSAGG [r7_288_JUSTAS]”, in that order: 2.17 ± 0.066 kcal/mol, 2.17 ± 0.026 kcal/mol and 2.26 ± 0.04 kcal/mol.
For the sequence “SAGGSAGGSAGGMLALIYGKEKPILLSAEEILNNPELLKELEKKGYPIVKIEFFKEEELSAGGSAGGSAGGS [r10_396_TrMRF]”, the figures for the “folding stability dG unfold” value in data set [1], in data set [2] and in data set [3] were 1.07 ± 0.049 kcal/mol, 0.478 ± 0.15 kcal/mol and 0.817 ± 0.097 kcal/mol, respectively.
